The values that follow come from patent publication US20230303681A1 (published 2023).

First the molecules themselves.
B1: anti-TMEM106B antibody TM-21 (antibody, V domains shown)
VH: EVQLVESGGGLVKPGGSLKLSCAASGFTFSNYAMSWVRETPEKRLEWVAFISDGGGYIYYADNVKDRFTISRDNAKNNLYLQMRHLKSEDTAMYYCARDGGTGFTYWGQGTLVTVSV
VL: DIVMTQAAFSNPVTLGTSASISCRSSKSLLHSNGITYLFWYLQKPGQSPQLLIYQMSNLASGVPDRFSSSGSGTDFTLRISRVEAEDVGVYYCVQNLELPYTFGGGTKLEIK
B2: anti-TMEM106B antibody TM-13 (antibody, V domains shown)
VH: QVQLQQSGAELVKPGASVKMSCKASGYTFTTFPIEWMKQSHGKGLEWIGNFHPYNDDTKYNEKFKGKATLTVDKSSSTVYLDLSRLTSDDSAVYYCARYFYGGMDYWGQGTSVTVSS
VL: DIQMTQSPASLSVSVGETVTITCRASENIYSSLGWYQQKQGESPQLLVFAATNLADGVPSRFSGSGSGTQYSLKINSLQSEDFGTYYCQHLWSIPWTFGGGTRLEIK
B3: anti-TMEM106B antibody TM-23 (antibody, V domains shown)
VH: QVQLQQSGAELIRPGTSVKVSCKASGYAFTNYLIEWVKKRPGQGLEWIGVINPGSGITNYNEKFKGKATLTADKSSSTAYMQLSSLTSEDSAVYFCARSDFITTVVADYWGQGTTVTVSS
VL: DIVVTQTPLSLPVSFGDQVSISCRSSQSLTNYYGNTYLSWYLHKPGQSPQLLIYGISNRFSGVPDRFSGSGSGTDFTLKISTIKPEDLGMYYCLQGTHQPRTFGGGTKLEIK
B4: anti-TMEM106B antibody TM-26 (antibody, V domains shown)
VH: B3 VH
VL: B3 VL
B5: anti-TMEM106B antibody TM-25 (antibody, V domains shown)
VH: EVQLVESGGDLVKPGGSLRLSCAASGFTFSGYGMSWIRQTPDKRLEWVATISSGGRYTVYPDSVKGRFTMSRDNVKNTLYLQMSSLKSEDTALYYCARDNFYSYAMDYWGLGTSVTVSA
VL: DIVMTQAAFSNPVTLGTSASISCRSSKSLLHSNGITYLFWYLQKPGQSPQLLIYQMSNLASGVPDRFSSSGSGTDFTLRISRVEAEDVGVYYCAQNLELWTFGGGTKLEIK
B6: anti-TMEM106B antibody TM-12 (antibody, V domains shown)
VH: EVQLQQSGAELMRPGASVKLSCTASGFNIQDYYMYWVKQRPEQGLEWIGRIDPEDGDAEYAPKFQGKATMTADTSSNTAYLQLSSLTSEDTAVYYCSTRVIYDGYYRTMDCWGQGTSVTVSS
VL: DVLMTQIPLSLPVSLGDQASISCRSSQTIVHSNGNTYLEWYLKKPGQSPKLLIDKISNRFSGVPDRFSGSGSGTDFTLKISRVEAEDLGVYYCFQGSHVPYTFGGGTKLEIK
B7: anti-TMEM106B antibody TM-27 (antibody, V domains shown)
VH: QVQLQQSGAELVRPGTSVKVSCKASGYALTNYLIEWVKQRPGQGLEWIGVINPGSGSTKYNEKFKGKATLTADKSSSTAYMQLSSLTSEDSAVYFCARIIYDHDWYFDVWGTGTTVTVSS
VL: QIVLTQSPAIMSASPGEKVTISCSASSSISYMYWYQQKPGSSPKPWIYRTSTLASGVPARFSGSGSGTSYSLTISSMEAEDAATYYCQQYHSYPRTFGGGTKLEIK

Several values for one entry are separate records, joined by “and”; a condition that tells them apart may be missing. Identical values can stand only once. Bounds are passed on as bounds.
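Wherever fold over negative controls is given: hybridoma supernatants incubated 30 min on ice with human TMEM106B-expressing HEK293 cells, binding read as anti-mouse-APC median fluorescence on live cells, relative to secondary-antibody-only wells.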
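Wherever fold-change over parental HEK293 is given: flow cytometry binding of hybridoma supernatants to HEK293 cells transiently expressing human, cyno or mouse TMEM106B, read as anti-mouse-APC median fluorescence, live cells only, 30 min on ice.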

The target in the first assay is T1, human TMEM106B (human, UniProt Q9NUM4 2-274).
T1 construct: Full-length, on transiently transfected HEK293 cells, or natively expressed on HeLa, U251 and A549 cells; also called huTMEM106B; huTMEM
The assay can be described thus: FACS HEK+huTMEM, 0.1 ug/ml.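 Further: flow cytometry binding of purified mouse IgG antibodies to HEK293 cells transiently expressing TMEM106B, read as median fluorescence intensity with propidium iodide positive dead cells gated out.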
B1 showed an MFI of 15600.

B2: the MFI stood at 19100.

Take B3: the MFI worked out at 2410.

B4 returned an MFI of 1960.

B5 registered an MFI of 32800.

B6 returned an MFI of 19700.

The molecule B7 registered an MFI of 1700.

The next assay addresses T2, GST-fusion human TMEM106B truncated (human).
T2 construct: also called GST-TMEM106B-truncated protein; GST-TMEM106B (truncated)
The assay can be described thus: array SPR, Ab immobilised.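 Further: antibodies amine-coupled on an MX-96 chip, antigen flowed at 500 nM top concentration in 5-fold serial dilutions, GST alone run as nonspecific-binding control, duplicate measurements.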
What is called Kd is the free concentration of one partner at which half of the binding sites on the other are occupied at equilibrium, for simple one-to-one binding. High values mean a looser complex, low ones a tighter complex. As a reminder, the koff is the rate constant with which the complex falls apart. Higher therefore signals a short-lived complex. By kon is commonly meant the rate constant with which the complex forms. In the case of B1, the Kd was 2.9 nM and 4.1 nM; the koff is 5.2e-05 s⁻¹ and 7.1e-05 s⁻¹; the kon is 18000 M⁻¹ s⁻¹ and 17000 M⁻¹ s⁻¹.

Take B2: the Kd is 2.4 nM and 2 nM; the koff is 7e-05 s⁻¹ and 8.4e-05 s⁻¹; the kon was 29000 M⁻¹ s⁻¹ and 42000 M⁻¹ s⁻¹.

Turning to B3, the Kd is 12 nM and 26 nM; the koff was 0.00045 s⁻¹ and 0.001 s⁻¹; the kon was 36000 M⁻¹ s⁻¹ and 41000 M⁻¹ s⁻¹.

With B4, the Kd was 12 nM and 19 nM; the koff is 0.00041 s⁻¹ and 0.00085 s⁻¹; the kon is 34000 M⁻¹ s⁻¹ and 45000 M⁻¹ s⁻¹.

As for B5, the Kd is 1.5 nM and 2.6 nM; the koff was 3.3e-05 s⁻¹ and 5.8e-05 s⁻¹; the kon is 22000 M⁻¹ s⁻¹.

As for B6, the kon was 21000 M⁻¹ s⁻¹ and 29000 M⁻¹ s⁻¹.

Take B7: the Kd is 16 nM and 18 nM; the koff was 0.00048 s⁻¹ and 0.00068 s⁻¹; the kon is 31000 M⁻¹ s⁻¹ and 39000 M⁻¹ s⁻¹.

In another assay the target is T1, human TMEM106B. Kind of assay: FACS A549, 1 ug/ml.
Regarding B1, the MFI came out at 2030.

With B2, the MFI was determined as 1950.

With B3, the MFI is 398.

With B4, the MFI amounted to 380.

In turn, B5 gave an MFI of 4530.

In turn, B6 returned an MFI of 3150.

Turning to B7, the MFI is 431.

In a further assay the target is T1, human TMEM106B. The assay can be described thus: FACS, HEK293 transfectants.
As to B1, the “fold over negative controls” value is more than 2 fold.

For B2, the “fold over negative controls” value was more than 2 fold.

Consider B3, for which the “fold over negative controls” value is more than 2 fold.

In the case of B4, the “fold over negative controls” value was more than 2 fold.

Turning to B5, the “fold over negative controls” value is more than 2 fold.

As for B6, the “fold over negative controls” value was more than 2 fold.

As to B7, the “fold over negative controls” value was more than 2 fold.

The next assay has as its target T3, GST (Pierce) (UniProt P08515 1-218 = GST, limits assumed).
T3 construct: control for the GST part of the fusion protein; also called GST protein; Glutathione-S-transferase
The assay can be described thus: ELISA, coated GST.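 Further: ELISA on plates coated with GST alone at 1-10 µg/ml, antibodies applied at 100-1000x dilution, bound antibody detected by peroxidase substrate colour after acid stop.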 Background: An ELISA detects its analyte on a solid surface through an enzyme-linked reagent.
Procedure: Briefly, 96-well polystyrene plates were coated with 1-10 µg/ml of recombinant GST-TMEM106B-truncated protein or GST (Pierce) in PBS either at 370 Cfor 1-4 hours or overnight at 4 °C. Coated plates were then blocked with 5% BSA for 1-hour, washed 3×150 µL in TBST (Tris-buffered saline + 0.1% Tween20), and then the antibodies were added at various dilutions (100-1000x) in PBS. After 1-hour incubation (room temperature, with shaking), the plates were washed 3x150 µL in TBST. […] After a final set of washes (3×150µL in TBST), 100 µL of peroxidase substrate was added for 1 minute; the reaction was then quenched with 2N sulfuric acid (100 µL).
B1: the binding result is “no binding”.

Turning to B2, the binding result is reported as “no binding”.

Consider B3, for which the binding result is “no binding”.

As for B4, the binding result is listed as “no binding”.

Consider B5, for which the binding result is “no binding”.

As for B6, the binding result is “no binding”.

As for B7, the binding result is “no binding”.

In the next assay the target is T1, human TMEM106B. The assay can be described thus: FACS HEK+huTMEM, 1.0 ug/ml.
Procedure: (§1) Purified anti-TMEM106B antibodies were evaluated for their binding affinity to various TMEM106B-expressing cell lines including HEK293 transiently transfected with human/cyno/mouse TMEM106B, as well as HeLa cells and A549 cells. Antibodies tested for this experiment were mouse IgGs purified from hybridoma supernatant. Affinity binding to cells was determined as follows. Briefly, 1x10^5 cells were aliquoted per well in 96-well round bottom plates and incubated with 50 µL of purified anti-TMEM106B antibody at various concentrations (10x dilutions starting at 10 µg/ml) in FACS buffer (PBS + 2% FBS + 1 mM EDTA). […] Sorting was performed on a iQue (Intellicyt), with sort gates drawn to exclude dead (propidium iodide +) cells. Binding data was analyzed using median fluorescent intensity (MFI) and graphed in Prism. Values presented are MFI.
The molecule B1 came in with an MFI of 69400.

In turn, B2 yielded an MFI of 67100.

As for B3, the MFI was found to be 3900.

For the molecule B4, the MFI amounted to 3340.

On to B5, for which the MFI came out at 64700.

The molecule B6 gave an MFI of 77800.

Take B7: the MFI was determined as 3040.

The next assay deals with T1, human TMEM106B. The assay can be described thus: FACS A549, 10 ug/ml.
Procedure: as §1
Molecule B1 showed an MFI of 4230.

B2 registered an MFI of 3890.

B3 showed an MFI of 757.

Regarding B4, the MFI turned out to be 509.

B5: the MFI stood at 7000.

Consider B6, for which the MFI stood at 4950.

The molecule B7 came in with an MFI of 622.

For another assay, the target named is T1, human TMEM106B. The assay can be described thus: FACS HeLa.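 Further: flow cytometry of cells incubated with hybridoma supernatant or purified antibody at 10 µg/ml for 1 h on ice, propidium iodide–positive dead cells gated out.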
B1 yielded an MFI of 1200.

As for B2, the MFI was determined as 1380.

Molecule B3 showed an MFI of 308.

As to B4, the MFI came to 384.

For the molecule B5, the MFI amounted to 2560.

Molecule B6 registered an MFI of 2660.

B7 came in with an MFI of 2960.

In the next assay the target is T4, mouse TMEM106B (mouse, UniProt Q80X71 2-275).
T4 construct: on transiently transfected HEK293 cells, or natively expressed on mouse Neuro2a cells; also called moTMEM106B; murine TMEM106B
The assay can be described thus: FACS Neuro2a.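 Further: flow cytometry of cells stained with antibody or hybridoma supernatant (purified antibody at 10 µg/ml) for 1 h on ice, propidium iodide–positive dead cells gated out.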
B1 came in with an MFI of 706.

Take B2: the MFI worked out at 927.

B3: the MFI is 333.

On to B4, for which the MFI came to 324.

As for B5, the MFI amounted to 354.

Turning to B6, the MFI was determined as 3040.

In turn, B7 returned an MFI of 1580.

For another assay, the target named is T1, human TMEM106B. Kind of assay: FACS A549.
Molecule B1 displayed an MFI of 1030.

For B2, the MFI amounted to 1260.

Molecule B3 returned an MFI of 1090.

Consider B4, for which the MFI is 952.

Take B5: the MFI was found to be 1700.

As to B6, the MFI stood at 1940.

B7 showed an MFI of 1930.

The target of the next assay is T1, human TMEM106B. The assay can be described thus: FACS U251.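 Further: flow cytometry of cells exposed to antibody (purified at 10 µg/mL, or hybridoma supernatant) for 1 h on ice, with propidium iodide-positive dead cells gated out.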
B1 yielded an MFI of 672.

On to B2, for which the MFI stood at 787.

The molecule B3 gave an MFI of 278.

As for B4, the MFI was found to be 300.

B5 gave an MFI of 1110.

Take B6: the MFI turned out to be 1330.

In the case of B7, the MFI was determined as 1320.

Another assay has as its target T1, human TMEM106B. Kind of assay: FACS HEK+huTMEM, 10 ug/ml.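 Further: purified mouse IgG antibodies at 10 µg/ml bound to HEK293 cells transiently expressing human TMEM106B, measured by flow cytometry as median fluorescence intensity of propidium iodide negative live cells.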
Turning to B1, the MFI is 69400.

In the case of B2, the MFI was 67500.

B3 returned an MFI of 12400.

In turn, B4 came in with an MFI of 3850.

On to B5, for which the MFI turned out to be 60300.

As for B6, the MFI was determined as 75300.

The molecule B7 had an MFI of 4140.

The target in the next assay is T4, mouse TMEM106B. Kind of assay: FACS, HEK293 transfectants. (In general: In flow cytometry, cells or beads pass a laser one at a time.)
Procedure: (§2) For screening of the hybridoma cell culture supernatants, humanTMEM106B-transfected HEK293 cells were aliquoted in 96-well round bottom plates (2x10^5 cells per well) and incubated with 50 µL of hybridoma cell culture supernatant on ice for 30 minutes. […] Median fluorescence intensity (MFI) of anti-mouse-APC MFI on TMEM106B+ HEK293 cells was calculated for each clone, and those displaying a signal of at least 2-fold over background compared to a secondary-antibody only well were taken forward for further analysis and characterization.
Regarding B1, the “fold-change over parental HEK293” value amounted to 46.5 fold.

B2: the “fold-change over parental HEK293” value was 52.7 fold.

On to B3, for which the “fold-change over parental HEK293” value was 4.46 fold.

Consider B4, for which the “fold-change over parental HEK293” value was determined as 6.54 fold.

For the molecule B5, the “fold-change over parental HEK293” value amounted to 2.87 fold.

On to B6, for which the “fold-change over parental HEK293” value was 32.7 fold.

Regarding B7, the “fold-change over parental HEK293” value turned out to be 3.32 fold.

A further assay addresses T1, human TMEM106B. Kind of assay: FACS, HEK293 transfectants. The source holds these as a separate data set.
Procedure: as §2
In the case of B1, the “fold-change over parental HEK293” value stood at 29.8 fold.

On to B2, for which the “fold-change over parental HEK293” value came to 36.7 fold.

Turning to B3, the “fold-change over parental HEK293” value was 7.09 fold.

Regarding B4, the “fold-change over parental HEK293” value amounted to 11.8 fold.

Take B5: the “fold-change over parental HEK293” value stood at 13 fold.

B6: the “fold-change over parental HEK293” value worked out at 25.9 fold.

Turning to B7, the “fold-change over parental HEK293” value came out at 7.62 fold.

The target of a further assay is T5, cynomolgus (cyno) TMEM106B (cynomolgus, UniProt Q9NUM4 2-274 (human entry)).
T5 construct: on transiently transfected HEK293 cells
The assay can be described thus: FACS, HEK293 transfectants.
Procedure: as §2
B1: the “fold-change over parental HEK293” value was found to be 48.9 fold.

In the case of B2, the “fold-change over parental HEK293” value came out at 55.5 fold.

For the molecule B3, the “fold-change over parental HEK293” value is 12.2 fold.

Regarding B4, the “fold-change over parental HEK293” value was found to be 18 fold.

In the case of B5, the “fold-change over parental HEK293” value was found to be 21.4 fold.

Take B6: the “fold-change over parental HEK293” value is 44.1 fold.

In the case of B7, the “fold-change over parental HEK293” value was 13.5 fold.

The next assay deals with T1, human TMEM106B. The assay can be described thus: FACS HEK+huTMEM, 0.01 ug/ml.
Procedure: as §1
For the molecule B1, the MFI came to 2350.

B2: the MFI was 2900.

On to B3, for which the MFI was 1100.

For B4, the MFI turned out to be 1000.

Turning to B5, the MFI is 4310.

Molecule B6 had an MFI of 3340.

B7 returned an MFI of 744.
